Results as given in patent US20140241984A1 (UNITED ARAB EMIRATES UNIVERSITY, published 2014).

T1: IAPP fibrils (UniProt P10997 34-70)
T1 construct: Amyloid fibrils of IAPP spotted in the dot blot; also called islet amyloid polypeptide
T1 peptide (looked up): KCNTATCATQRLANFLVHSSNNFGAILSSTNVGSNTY

T2: IAPP monomers (UniProt P10997 34-70)
T2 peptide (looked up): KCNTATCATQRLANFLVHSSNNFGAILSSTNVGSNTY

T3: fibrils of NAC (61-78) (human)
T3 construct: also called NAC (61-78) (F)
T3 peptide: EQVTNVGGAVVTGVTAVA

T4: α-synuclein peptide 1 (1-14) (human)
T4 construct: also called Peptide No. 1
T4 peptide: MDVFMKGLSKAKEG

T5: α-synuclein peptide 2 (8-21) (human)
T5 construct: also called Peptide No. 2
T5 peptide: LSKAKEGVVAAAEK

T6: α-synuclein peptide 3 (15-28) (human)
T6 construct: also called Peptide No. 3
T6 peptide: VVAAAEKTKQGVAE

T7: α-synuclein peptide 6 (36-49) (human)
T7 construct: also called Peptide No. 6
T7 peptide: GVLYVGSKTKEGVV

T8: α-synuclein peptide 7 (43-56) (human)
T8 construct: also called Peptide No. 7
T8 peptide: KTKEGVVHGVATVA

T9: α-synuclein peptide 8 (50-63) (human)
T9 construct: also called Peptide No. 8
T9 peptide: HGVATVAEKTKEQV

T10: α-synuclein peptide 9 (57-70) (human)
T10 construct: also called Peptide No. 9
T10 peptide: EKTKEQVTNVGGAV

T11: α-synuclein peptide 10 (64-77) (human)
T11 construct: also called Peptide No. 10
T11 peptide: TNVGGAVVTGVTAV

T12: α-synuclein peptide 11 (71-84) (human)
T12 construct: also called Peptide No. 11
T12 peptide: VTGVTAVAQKTVEG

T13: α-synuclein peptide 12 (78-91) (human)
T13 construct: also called Peptide No. 12
T13 peptide: AQKTVEGAGSIAAA

T14: α-synuclein peptide 13 (85-98) (human)
T14 construct: also called Peptide No. 13
T14 peptide: AGSIAAATGFVKKD

T15: α-synuclein peptide 14 (92-105) (human)
T15 construct: also called Peptide No. 14
T15 peptide: TGFVKKDQLGKNEE

T16: α-synuclein peptide 15 (99-112) (human)
T16 construct: also called Peptide No. 15
T16 peptide: QLGKNEEGAPQEGI

T17: α-synuclein peptide 16 (106-119) (human)
T17 construct: also called Peptide No. 16
T17 peptide: GAPQEGILEDMPVD

T18: α-synuclein peptide 17 (113-126) (human)
T18 construct: also called Peptide No. 17
T18 peptide: LEDMPVDPDNEAYE

T19: α-synuclein peptide 18 (120-133) (human)
T19 construct: also called Peptide No. 18
T19 peptide: PDNEAYEMPSEEGY

B1: Syn-O2 (antibody, IgG1, V domains shown)
VH: EVQLVESGGGLVQPKGSLKLSCAASGFTFNTYAMHWVRQAPGKGLEWVARIRSKSSNYATYYADSVKDRFTISRDDSQSMLYLQMNNLKTEDTAMYYCVRPLKWYFDVWGTGTTVTVSS
VL: QIVLTQSPAILSASPGEKVTMTCSASSTVNYMHWYQQKSGTSPKIWIYDTSKLASGVPARFSGSGSWTSYSLTISSMEAEDAATYYCQQWNSNPPTFGAGTKLELK
notes: same VH and VL as Syn-O1, Syn-O3, Syn-O4; also called mAb Syn-O2
B2: Syn-O3 (antibody, IgG1, V domains shown)
VH: EVQLVESGGGLVQPKGSLKLSCAASGFTFNTYAMHWVRQAPGKGLEWVARIRSKSSNYATYYADSVKDRFTISRDDSQSMLYLQMNNLKTEDTAMYYCVRPLKWYFDVWGTGTTVTVSS
VL: QIVLTQSPAILSASPGEKVTMTCSASSTVNYMHWYQQKSGTSPKIWIYDTSKLASGVPARFSGSGSWTSYSLTISSMEAEDAATYYCQQWNSNPPTFGAGTKLELK
notes: same VH and VL as Syn-O1, Syn-O2, Syn-O4; also called mAb Syn-O3

Columns and labels:
A-beta fibrils = target: T20, A-beta fibrils (UniProt P05067 672-713, limits assumed); test: dot blot
T20 construct: Amyloid fibrils of A-beta spotted in the dot blot; also called β-amyloid
Protocol: (§1) The membranes were blocked with 5% skimmed milk in PBST (PBS containing 0.05% Tween) and incubated for 1 h at room temperature. […] The membranes were washed and incubated with either 1/20000 diluted goat anti-mouse IgG-HRP (Jackson ImmunoResearch) or 1/10000 diluted goat anti-rabbit IgG-HRP (Jackson Immunoresearch) for 1 h at room temperature. The blots were then developed with Super signal West Pico chemiluminescent substrate.
(§2) C) To test the cross reactivity of our conformational monoclonal antibodies to different fragments of α-synuclein. […] The membranes were washed before incubating with either 1/20000 diluted goat anti-mouse IgG-HRP conjugate (Jackson Immunoresearch) or 1/300000 diluted chicken anti-goat IgG-HRP conjugate (Santa Cruz Biotechnology) for 1 h at room temperature. The blots were then developed with Super signal West Pico chemiluminescent substrate.

A-beta monomers = target: T21, A-beta monomers (UniProt P05067 672-713, limits assumed); test: dot blot
T21 construct: also called β-amyloid monomers
Protocol: as §1, §2

IAPP fibrils = target: T1, IAPP fibrils; test: dot blot
Protocol: as §1, §2

IAPP monomers = target: T2, IAPP monomers; test: dot blot
Protocol: as §1, §2

β-synuclein fibrils = β-synuclein fibrils (UniProt Q16143 1-134); test: dot blot
Protocol: as §1, §2

β-synuclein monomers = β-synuclein monomers (UniProt Q16143 1-134); test: dot blot
Protocol: as §1, §2

γ-synuclein fibrils = γ-synuclein fibrils (UniProt O76070 1-127); test: dot blot
Protocol: as §1, §2

γ-synuclein monomers = γ-synuclein monomers (UniProt O76070 1-127); test: dot blot
Protocol: as §1, §2

fibrils of NAC (61-95) = target: T22, fibrils of NAC (61-95) (human); test: dot blot
T22 construct: also called NAC region (61-95) (F)
Protocol: as §1, §2

fibrils of NAC (61-78) = target: T3, fibrils of NAC (61-78); test: dot blot
Protocol: as §1, §2

[1] = target: T4, α-synuclein peptide 1 (1-14); test: pepscan ELISA
Protocol: (§3) To confirm the pepscan results using dot blot the mAbs were also tested by Pepscan using ELISA. […] The plate was washed with PBST and 50 μl of substrate (SuperSignal ELISA Femto Maximum Sensitivity Substrate, Thermo Scientific) was added and immediately read the plate using Victor X3 microtiter plate reader. After the ELISA signals were measured, the plate was also exposed onto X-ray film to develop the spots.

[2] = target: T5, α-synuclein peptide 2 (8-21); test: pepscan ELISA
Protocol: as §3

[3] = target: T6, α-synuclein peptide 3 (15-28); test: pepscan ELISA
Protocol: as §3

[4] = target: T7, α-synuclein peptide 6 (36-49); test: pepscan ELISA
Protocol: as §3

[5] = target: T8, α-synuclein peptide 7 (43-56); test: pepscan ELISA
Protocol: as §3

[6] = target: T9, α-synuclein peptide 8 (50-63); test: pepscan ELISA
Protocol: as §3

[7] = target: T10, α-synuclein peptide 9 (57-70); test: pepscan ELISA
Protocol: as §3

[8] = target: T11, α-synuclein peptide 10 (64-77); test: pepscan ELISA
Protocol: as §3

[9] = target: T12, α-synuclein peptide 11 (71-84); test: pepscan ELISA
Protocol: as §3

[10] = target: T13, α-synuclein peptide 12 (78-91); test: pepscan ELISA
Protocol: as §3

[11] = target: T14, α-synuclein peptide 13 (85-98); test: pepscan ELISA
Protocol: as §3

[12] = target: T15, α-synuclein peptide 14 (92-105); test: pepscan ELISA
Protocol: as §3

[13] = target: T16, α-synuclein peptide 15 (99-112); test: pepscan ELISA
Protocol: as §3

[14] = target: T17, α-synuclein peptide 16 (106-119); test: pepscan ELISA
Protocol: as §3

[15] = target: T18, α-synuclein peptide 17 (113-126); test: pepscan ELISA
Protocol: as §3

[16] = target: T19, α-synuclein peptide 18 (120-133); test: pepscan ELISA
Protocol: as §3

Chain of β-synuclein monomers (Q16143 whole entry): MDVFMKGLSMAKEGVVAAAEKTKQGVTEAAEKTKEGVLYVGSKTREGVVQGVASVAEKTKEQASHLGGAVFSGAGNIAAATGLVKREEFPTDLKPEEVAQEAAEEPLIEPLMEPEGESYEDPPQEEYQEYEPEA
Chain of β-synuclein fibrils (Q16143 whole entry): as above
Chain of γ-synuclein monomers (O76070 whole entry): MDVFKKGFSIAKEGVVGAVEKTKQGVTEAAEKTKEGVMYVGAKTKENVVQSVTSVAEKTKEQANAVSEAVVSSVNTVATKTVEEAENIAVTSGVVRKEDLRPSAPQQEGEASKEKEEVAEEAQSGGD
Chain of γ-synuclein fibrils (O76070 whole entry): as above

Binder	binding result (A-beta fibrils)	binding result (A-beta monomers)	binding result (IAPP fibrils)	binding result (IAPP monomers)	binding result (β-synuclein fibrils)	binding result (β-synuclein monomers)	binding result (γ-synuclein fibrils)	binding result (γ-synuclein monomers)	binding result (fibrils of NAC (61-95))	binding result (fibrils of NAC (61-78))	binding result [1]	binding result [2]	binding result [3]	binding result [4]	binding result [5]	binding result [6]	binding result [7]	binding result [8]	binding result [9]	binding result [10]	further results
B1	no binding (tested: 50 ng/ml antibody, 50 ng spotted)	no binding (tested: 50 ng/ml antibody, 50 ng spotted)	no binding (tested: 50 ng/ml antibody, 50 ng spotted)	no binding (tested: 50 ng/ml antibody, 50 ng spotted)	no binding (tested: 50 ng spotted)	no binding (tested: 50 ng spotted)	no binding (tested: 50 ng spotted)	no binding (tested: 50 ng spotted)	no binding (tested: 50 ng spotted)	no binding (tested: 50 ng spotted)	no binding (tested: 100 ng/ml antibody, 500 ng/well peptide)	no binding (tested: 100 ng/ml antibody, 500 ng/well peptide)	no binding (tested: 100 ng/ml antibody, 500 ng/well peptide)	no binding (tested: 100 ng/ml antibody, 500 ng/well peptide)	no binding (tested: 100 ng/ml antibody, 500 ng/well peptide)	no binding (tested: 100 ng/ml antibody, 500 ng/well peptide)	no binding (tested: 100 ng/ml antibody, 500 ng/well peptide)	no binding (tested: 100 ng/ml antibody, 500 ng/well peptide)	no binding (tested: 100 ng/ml antibody, 500 ng/well peptide)	no binding (tested: 100 ng/ml antibody, 500 ng/well peptide)	binding result [11]: no binding (tested: 100 ng/ml antibody, 500 ng/well peptide); binding result [12]: no binding (tested: 100 ng/ml antibody, 500 ng/well peptide); binding result [13]: no binding (tested: 100 ng/ml antibody, 500 ng/well peptide); binding result [14]: no binding (tested: 100 ng/ml antibody, 500 ng/well peptide); binding result [15]: no binding (tested: 100 ng/ml antibody, 500 ng/well peptide); binding result [16]: no binding (tested: 100 ng/ml antibody, 500 ng/well peptide)
B2	no binding (tested: 50 ng/ml antibody, 50 ng spotted)	no binding (tested: 50 ng/ml antibody, 50 ng spotted)	no binding (tested: 50 ng/ml antibody, 50 ng spotted)	no binding (tested: 50 ng/ml antibody, 50 ng spotted)	no binding (tested: 50 ng spotted)	no binding (tested: 50 ng spotted)	no binding (tested: 50 ng spotted)	no binding (tested: 50 ng spotted)	no binding (tested: 50 ng spotted)	no binding (tested: 50 ng spotted)	no binding (tested: 100 ng/ml antibody, 500 ng/well peptide)	no binding (tested: 100 ng/ml antibody, 500 ng/well peptide)	no binding (tested: 100 ng/ml antibody, 500 ng/well peptide)	no binding (tested: 100 ng/ml antibody, 500 ng/well peptide)	no binding (tested: 100 ng/ml antibody, 500 ng/well peptide)	no binding (tested: 100 ng/ml antibody, 500 ng/well peptide)	no binding (tested: 100 ng/ml antibody, 500 ng/well peptide)	no binding (tested: 100 ng/ml antibody, 500 ng/well peptide)	no binding (tested: 100 ng/ml antibody, 500 ng/well peptide)	no binding (tested: 100 ng/ml antibody, 500 ng/well peptide)	binding result [11]: no binding (tested: 100 ng/ml antibody, 500 ng/well peptide); binding result [12]: no binding (tested: 100 ng/ml antibody, 500 ng/well peptide); binding result [13]: no binding (tested: 100 ng/ml antibody, 500 ng/well peptide); binding result [14]: no binding (tested: 100 ng/ml antibody, 500 ng/well peptide); binding result [15]: no binding (tested: 100 ng/ml antibody, 500 ng/well peptide); binding result [16]: no binding (tested: 100 ng/ml antibody, 500 ng/well peptide)
